Results on twelve molecules are retold here after EP4471048A1, “PEPTIDE INHIBITORS OF INTERLEUKIN-23 RECEPTOR” (Zealand Pharma A/S, priority 2023, dated 2024).

*1 amine or outer side, *2 acyl side, *3 side chain or, on linkers, in order; H or OH if unused. Bridges are numbered along the chain shown (N, C = ends). Where no end group is shown, it is not given here. [ ]: non-standard residue; d: D form. 4‑Aminomethyl‑phenylacetyl = 4-aminomethyl-phenylacetyl unit, its amine closes the lactam, O=C(Cc1ccc(CN[*:1])cc1)[*:2]; Trp(1-Me) = Cn1cc(C[C@H](N)C(=O)O)c2ccccc21; 2Nal = N[C@@H](Cc1ccc2ccccc2c1)C(=O)O; AEF = NCCOc1ccc(C[C@H](N)C(=O)O)cc1; 3Pal = N[C@@H](Cc1cccnc1)C(=O)O; αMeL = CC(C)C[C@](C)(N)C(=O)O; NMeK = CN[C@@H](CCCCN)C(=O)O; β3hK = NCCCC[C@H](N)CC(=O)O; dOrn = NCCC[C@@H](N)C(=O)O; Orn = NCCC[C@H](N)C(=O)O; Dab = NCC[C@H](N)C(=O)O; βAla = NCCC(=O)O

As a reminder, the share remaining is the share of the starting amount still present when the sample was taken. The term IC50 denotes the concentration that gives 50% inhibition. In general, Ki refers to the dissociation constant of the complex between target and ligand, obtained from inhibition or displacement. Low readings indicate higher affinity, high ones lower affinity.

Data set [1] can be described thus: Peptide stability in simulated gastric fluid (SGF). The conditions noted are these: pig, simulated gastric fluid (SGF) with porcine pepsin (3.2 g/L), pH 1.2, 10 µM, 37 °C, porcine pepsin. The format is in vitro ADME. A digest of the protocol:
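Peptide incubated at 37 °C with gentle shaking in SGF (NaCl, pH 1.2). Samples centrifuged, diluted and analysed by LC-HRMS; percent remaining at each timepoint from absolute peak areas relative to time zero, with 4 h as the reference point.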

The target of data set [2] is T1, human IL-23R (Homo sapiens, UniProt Q5VWK5).
T1 sequence (Q5VWK5 22-629): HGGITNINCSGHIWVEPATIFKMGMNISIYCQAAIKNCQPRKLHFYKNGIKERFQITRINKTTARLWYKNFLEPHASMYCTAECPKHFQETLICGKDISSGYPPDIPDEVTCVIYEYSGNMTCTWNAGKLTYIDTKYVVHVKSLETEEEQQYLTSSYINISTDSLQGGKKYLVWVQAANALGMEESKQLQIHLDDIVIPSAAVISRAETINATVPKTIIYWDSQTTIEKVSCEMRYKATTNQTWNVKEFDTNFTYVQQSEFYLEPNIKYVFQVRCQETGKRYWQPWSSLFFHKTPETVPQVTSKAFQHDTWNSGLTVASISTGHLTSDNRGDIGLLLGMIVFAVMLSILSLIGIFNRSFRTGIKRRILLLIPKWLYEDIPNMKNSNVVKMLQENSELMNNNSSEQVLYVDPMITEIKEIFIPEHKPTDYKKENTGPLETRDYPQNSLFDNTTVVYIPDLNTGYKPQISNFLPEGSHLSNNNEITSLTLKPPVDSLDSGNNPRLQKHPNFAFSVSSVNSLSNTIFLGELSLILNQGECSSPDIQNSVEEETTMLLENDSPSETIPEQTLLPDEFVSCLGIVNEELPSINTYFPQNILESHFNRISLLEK
The experiment in a line: biochemical. A digest of the protocol:
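BRET displacement of a TAMRA-labelled reference compound from N-terminal Nanoluc-IL-23R fusion protein in membranes from stably transfected HEK293 cells. Incubation 2 h at room temperature, then Nanoluc substrate was added and the TAMRA/Nanoluc ratio read. IC50 and maximal displacement came from 4-parameter logistic fits.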

For data set [3], the target named is IL-23 mediated signalling (Homo sapiens, UniProt Q5VWK5). The experiment in a line: Functional inhibition of IL-23 mediated STAT3 signalling (phospho-STAT3 MSD) in DB cells. It is filed as cell-based. A digest of the protocol:
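DB cells preincubated with inhibitor 15 min at 37 °C, then stimulated 90 min with EC80 human IL-23; lysate phospho-STAT3 measured by MSD electrochemiluminescence. Signal normalized to IL-23-alone and buffer controls; IC50 and maximal % inhibition from 4-parameter logistic fit.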

A short description of data set [4]: Peptide stability in simulated intestinal fluid (SIF). The format is in vitro ADME. As to conditions: pig, 37 °C, porcine pancreatin. Put shortly: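 Peptides were incubated at 37 °C with gentle shaking in pH 6.8 potassium phosphate SIF containing porcine pancreatin (10 g/L). Supernatants were analysed by LC-HRMS. Percent remaining at each timepoint, including 4 h, was calculated relative to time zero from absolute peak areas.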

The target of data set [5] is T2, Nluc-IL23R fusion protein (human, UniProt Q5VWK5 22-629).
T2 construct: range 22-629; Stably expressed in HEK293 cells; also called hIL-23R; human IL-23R; not shown: Nanoluc protein (N1371, Promega) at the N-terminus, after a secretion signal
T2 sequence (looked up): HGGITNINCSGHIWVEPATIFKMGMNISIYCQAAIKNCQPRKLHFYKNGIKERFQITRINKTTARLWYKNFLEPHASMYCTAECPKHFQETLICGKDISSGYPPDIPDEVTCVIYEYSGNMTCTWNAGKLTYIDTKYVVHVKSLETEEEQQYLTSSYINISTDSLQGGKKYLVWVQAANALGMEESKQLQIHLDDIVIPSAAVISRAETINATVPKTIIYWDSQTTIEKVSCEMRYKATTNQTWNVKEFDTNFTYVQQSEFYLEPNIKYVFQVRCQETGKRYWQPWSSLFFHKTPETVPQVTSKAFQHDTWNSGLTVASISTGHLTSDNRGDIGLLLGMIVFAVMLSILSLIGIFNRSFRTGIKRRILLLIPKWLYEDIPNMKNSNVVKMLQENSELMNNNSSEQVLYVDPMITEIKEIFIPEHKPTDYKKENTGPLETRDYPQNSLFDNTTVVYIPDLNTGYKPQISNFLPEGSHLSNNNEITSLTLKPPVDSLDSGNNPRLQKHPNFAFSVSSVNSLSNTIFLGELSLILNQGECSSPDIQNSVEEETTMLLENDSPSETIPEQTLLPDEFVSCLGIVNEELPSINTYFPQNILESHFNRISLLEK
Put plainly: BRET competition vs TAMRA-labelled peptide, Nluc-IL23R membranes. On the technique in general: Bioluminescence resonance energy transfer reports proximity on the nanometre scale.

In data set [6] the target is T3, human IL-23R endogenously expressed on DB cells (human, UniProt Q5VWK5 24-629).
T3 sequence (looked up): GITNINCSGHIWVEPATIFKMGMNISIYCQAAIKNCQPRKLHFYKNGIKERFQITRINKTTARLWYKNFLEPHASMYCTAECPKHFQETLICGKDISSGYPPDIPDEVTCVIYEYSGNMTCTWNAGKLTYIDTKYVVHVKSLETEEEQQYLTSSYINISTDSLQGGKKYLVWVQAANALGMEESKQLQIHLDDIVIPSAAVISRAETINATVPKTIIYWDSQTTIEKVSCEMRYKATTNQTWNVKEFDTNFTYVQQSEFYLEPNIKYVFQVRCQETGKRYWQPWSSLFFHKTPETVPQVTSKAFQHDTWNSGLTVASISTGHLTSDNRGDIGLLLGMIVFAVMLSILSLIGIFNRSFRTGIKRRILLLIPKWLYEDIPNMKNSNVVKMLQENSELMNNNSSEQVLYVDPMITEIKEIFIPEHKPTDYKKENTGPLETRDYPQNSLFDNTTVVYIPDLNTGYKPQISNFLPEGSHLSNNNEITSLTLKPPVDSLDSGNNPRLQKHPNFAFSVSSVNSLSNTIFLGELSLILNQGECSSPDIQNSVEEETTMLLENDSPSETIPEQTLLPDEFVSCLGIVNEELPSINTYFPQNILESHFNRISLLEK
Put plainly: cell-based or functional assay.

Turning to `CC(C)C[C@]1(C)NC(=O)[C@H](Cc2ccc3ccccc3c2)NC(=O)[C@H](Cc2ccc(OCCN)cc2)NC(=O)[C@@H]2CCNC(=O)CC[C@H](NC(=O)[C@H](CO)NC(=O)Cc3ccc(cc3)CNC(=O)CC[C@@H](C(=O)N[C@@H](CCN)C(=O)N[C@@H](Cc3cccnc3)C(N)=O)NC1=O)C(=O)N[C@@H](Cc1c[nH]c3ccccc13)C(=O)N[C@@H](CCC(N)=O)C(=O)N2` [Ref 122, [4-Aminomethyl-phenylacetyl](1c)*SE(2c)WQ[Dab](2c)[Y(2-aminoethoxy)][2-Nal][2-Me-Leu]E(1 c)[Dab][3-(3-Pyridyl)-Ala]-[NH2], reference compound], the fraction remaining at 1 h, 10 µM in data set [1] (pH 1.2, 1 h, read-out: SGF (% remaining 1 h)) is 92%; in data set [4] (pH 6.8, 1 h) it was 73%. For the same molecule, the share remaining at 4 h, 10 µM in data set [1] (pH 1.2, 4 h, read-out: SGF (% remaining 4 h)) is 90%; in data set [4] (pH 6.8, 4 h, read-out: SIF (% remaining 4 h)), 25%. Also, the “% displacement (hIL-23R NIuc)” value in data set [2] came out at 97%. Moreover, the IC50 was determined as 6.6 pM in data set [2] and 28 pM in data set [3]. The same molecule came in with a Ki in data set [2] of 5.41 pM. Also, the Emax in data set [3] (Table 3-2, maximal inhibitory response, DB cells, hIL-23 at EC80, read-out: hIL-23 (pSTAT3) antagonist % inhibition) worked out at 99%.

B1: Compound 63 (peptide)
peptide: KIVWQE[AEF][2Nal][αMeL]EP[3Pal]-NHMe
modifications: lactam 1-10; lactam (positions not given here); not fully specified (bridges); printed as K(1c)(6c)^{†}IVWQE(6c)[Y(2-aminoethoxy)][2-Nal][2-Me-Leu]E(1c)P[3-(3-Pyridyl)-Ala]-[NHMe]
With B1, the % displacement in data set [5] stood at 98%.

On to [4‑Aminomethyl‑phenylacetyl]SCWQC[AEF][2Nal][αMeL]ES-NH2 (lactam (positions not given here); bridge 3-6; not fully specified (bridges)) [Ref 81], for which, in data set [6], the “hIL-23 (pSTAT3) antagonist % inhibition” value was determined as 95% and the “hIL-23 (pSTAT3) antagonist IC50” value came out at 21 nM.

B2: Compound 79 (peptide)
peptide: K[βAla][Trp(1-Me)]QE[AEF][2Nal][αMeL]E[Dab][3Pal]-NHMe
modifications: lactam 1-9, 1-5; not fully specified; printed as K(1c)(6c)^†[3-Aminopropanoyl][1-Me-Trp]QE(6c)[Y(2-aminoethoxy)][2-Nal][2-Me-Leu]E(1c)[Dab][3-(3-Pyridyl)-Ala]-[NHMe], (1c) [2,11] lactam, (6c) [2,7] lactam, ^† alpha-amine in bridge; also: alpha-amine of residue 1 in bridge, which of the two lactams not given here
B2 had a % displacement in data set [5] of 100%.

B3: Compound 91 (peptide)
peptide: [Orn][βAla]WQE[AEF][2Nal][αMeL]E[Dab][3Pal]-NHMe
modifications: lactam 1-9, 1-5; not fully specified; printed as [Orn](1c)(6c)^†[3-Aminopropanoyl]WQE(6c)[Y(2-aminoethoxy)][2-Nal][2-Me-Leu]E(1c)[Dab][3-(3-Pyridyl)-Ala]-[NHMe], (1c) [2,11] lactam, (6c) [2,7] lactam, ^† alpha-amine in bridge; also: alpha-amine of residue 1 in bridge, which of the two lactams not given here
B3: the % displacement in data set [5] worked out at 100%.

B4: Compound 99 (peptide)
peptide: [β3hK]GWQE[AEF][2Nal][αMeL]E[Dab][3Pal]-NHMe
modifications: lactam 1-9; lactam (positions not given here); not fully specified (bridges); also: beta-amine of residue 1 is in one of the two lactams
For B4, in data set [6], the “hIL-23 (pSTAT3) antagonist % inhibition” value turned out to be 100% and the “hIL-23 (pSTAT3) antagonist IC50” value worked out at 14 pM.

B5: Compound 80 (peptide)
peptide: [NMeK][βAla]WQE[AEF][2Nal][αMeL]E[Dab][3Pal]-NHMe
modifications: lactam 1-9, 1-5; not fully specified; printed as [N-Me-Lys](1c)(6c)^†[3-Aminopropanoyl]WQE(6c)[Y(2-aminoethoxy)][2-Nal][2-Me-Leu]E(1c)[Dab][3-(3-Pyridyl)-Ala]-[NHMe], (1c) [2,11] lactam, (6c) [2,7] lactam, ^† alpha-amine in bridge; also: alpha-amine of residue 1 in bridge, which of the two lactams not given here
The molecule B5 came in with a % displacement in data set [5] of 102%.

B6: Compound 102 (peptide)
peptide: [iso‑Lys]WQE[AEF][2Nal][αMeL]E[Dab][3Pal]-NHMe
modifications: lactam (positions not given here); not fully specified (bridges); printed as [iso-Lys](1c)^†(6c)WQE(6c)[Y(2-aminoethoxy)][2-Nal][2-Me-Leu]E(1c)[Dab][3-(3-Pyridyl)-Ala]-[NHMe], (1c) [2,11] lactam, (6c) [2,7] lactam, ^† alpha-amine in bridge
In turn, B6 came in with a % displacement in data set [5] of 97%.

B7: Compound 10 (peptide)
peptide: [dOrn]TVWQD[AEF][2Nal][αMeL]E[Dab][3Pal]-NH2
modifications: lactam 1-10, N-6
SMILES: CC(C)C[C@]1(C)NC(=O)[C@H](Cc2ccc3ccccc3c2)NC(=O)[C@H](Cc2ccc(OCCN)cc2)NC(=O)[C@@H]2CC(=O)N[C@H](CCCNC(=O)CC[C@@H](C(=O)N[C@@H](CCN)C(=O)N[C@@H](Cc3cccnc3)C(N)=O)NC1=O)C(=O)N[C@@H]([C@@H](C)O)C(=O)N[C@@H](C(C)C)C(=O)N[C@@H](Cc1c[nH]c3ccccc13)C(=O)N[C@@H](CCC(N)=O)C(=O)N2
As for B7, the % displacement in data set [5] was 107%.

B8: Compound 76 (peptide)
peptide: KTVWQE[AEF][2Nal][Dab]E[Dab][3Pal]
modifications: lactam 1-10, 9-C; lactam (positions not given here); not fully specified (bridges); printed as K(1c)(6c)^{†}TVWQE(6c)[Y(2-aminoethoxy)][2-Nal][Dab](7c)E(1c)[Dab][3-(3-Pyridyl)-Ala](7c)^{‡}
As for B8, the % displacement in data set [5] was 92%. Regarding [4‑Aminomethyl‑phenylacetyl]SEWQ[Dab][AEF][2Nal][αMeL]E[Dab]-NH2 (lactam (positions not given here); bridge 3-6; not fully specified (bridges)) [Ref 125], the “hIL-23 (pSTAT3) antagonist IC50” value in data set [6] was 21 nM. Molecule [iso‑Glu]WQE[AEF][2Nal][αMeL]K[Dab][3Pal]-NHMe (lactam 1-8, N-4; also: iso-Glu: alpha-carboxylic acid in bridge) [Compound 106] registered a % displacement in data set [5] of 99%.
